One block for each molecule: values may come before it.
Key:
CtcP = target: T1, CtcP (Kitasatospora aureofaciens, UniProt A0A1E7MYN1); test: X-ray crystal structure (FAD soak); type: binding; conditions: chloride ion bound near isoalloxazine ring; soaked with 1 mM FAD, 20 mM NaCl, pH 7.5, 16 h
T1 construct: full length, 555 residues; N-terminal His10 tag cut by PreScission protease; expressed in E. coli BL21(DE3); homodimer; primers encode N-terminus MTDTTAD and C-terminus AMRVKP

CtcQ [1] = target: T2, CtcQ (Kitasatospora aureofaciens, UniProt S4S3E3); test: X-ray crystal structure (co-crystal); type: binding; conditions: co-crystallised with 5 mM NAD and 5 mM FAD, pH 7.5
T2 construct: full length; crystal: N-terminal His10 tag cut by PreScission protease; reductase assay: C-terminal His6 tag kept; homodimer; primers encode N-terminus MPPEPLS and C-terminus TLAAEG

CtcQ [2] = target: T2, CtcQ; test: NADH oxidation, absorbance at […] nm; type: biochemical; conditions: 0.1 mM FMN, 1 mM NADH, 1.7 uM CtcQ (C-terminal His6), 20 mM HEPES pH 7.5
[3] = target: CtcP (1-516), C-terminal truncation mutant lacking the helical hairpin (residues 1-516, P516G) (Kitasatospora aureofaciens); test: SEC; S-200 column in 40 mM Tris pH 8.0, 100 mM NaCl, 2 mM BME; position of monomeric PltM as marker
[4] = target: halogenase CtcP from Kitasatospora aureofaciens, full-length (Kitasatospora aureofaciens); test: crystal structure; CtcP in complex with FAD and Cl-; crystals from 0.1 M HEPES pH 7.5, 26% PEG 4000, 0.2 M Li2SO4, 21 °C, soaked with 1 mM FAD for 16 h
[5] = target: halogenase CtcP from Kitasatospora aureofaciens, full-length (Kitasatospora aureofaciens); test: SEC; S-200 column in 40 mM Tris pH 8.0, 100 mM NaCl, 2 mM BME; position of monomeric PltM as marker
[6] = target: halogenase CtcP from Kitasatospora aureofaciens, full-length (Kitasatospora aureofaciens); test: crystal structure; CtcP in complex with PEG and sulfate; hanging drops, 100 mM HEPES pH 7.0, 1.6 M ammonium sulfate, 2% PEG 400, 21 °C
[7] = target: the molecule itself; test: crystal structure; CtcQ in complex with FAD and NAD; hanging drops, 0.1 M Tris pH 7.5, 0.6 M KH2PO4, 0.6 M NaH2PO4, 21 °C, 5 mM NAD and 5 mM FAD

T1 sequence (A0A1E7MYN1 whole entry): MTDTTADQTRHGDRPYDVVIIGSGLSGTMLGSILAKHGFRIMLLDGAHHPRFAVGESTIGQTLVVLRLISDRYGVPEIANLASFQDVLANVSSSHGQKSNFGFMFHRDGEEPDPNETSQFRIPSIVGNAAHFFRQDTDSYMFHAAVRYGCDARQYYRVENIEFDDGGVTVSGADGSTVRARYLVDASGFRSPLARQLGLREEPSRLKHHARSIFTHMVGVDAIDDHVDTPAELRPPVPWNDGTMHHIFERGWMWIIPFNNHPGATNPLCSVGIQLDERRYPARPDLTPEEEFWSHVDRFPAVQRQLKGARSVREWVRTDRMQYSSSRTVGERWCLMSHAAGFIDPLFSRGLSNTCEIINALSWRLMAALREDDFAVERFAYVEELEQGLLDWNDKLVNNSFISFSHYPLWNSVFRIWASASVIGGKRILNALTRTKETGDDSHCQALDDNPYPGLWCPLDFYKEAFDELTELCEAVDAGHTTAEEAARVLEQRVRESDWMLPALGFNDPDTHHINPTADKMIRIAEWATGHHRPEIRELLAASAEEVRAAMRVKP

Molecule: Cc1cc2nc3c(=O)[nH]c(=O)nc-3n(C[C@H](O)[C@H](O)[C@H](O)COP(=O)(O)OP(=O)(O)OC[C@H]3O[C@@H](n4cnc5c(N)ncnc54)[C@H](O)[C@@H]3O)c2cc1C [FAD]
X-ray crystal structure (FAD soak) (CtcP): We obtained crystals of the CtcP-FAD complex by soaking FAD into the CtcP crystals
X-ray crystal structure (co-crystal) (CtcQ [1]; flavin subsite, second FAD also in the NAD subsite of most active sites): determined the crystal structure of CtcQ in complex with FAD and NAD

Molecule: Cc1cc2nc3c(=O)[nH]c(=O)nc-3n(C[C@H](O)[C@H](O)[C@H](O)COP(=O)(O)O)c2cc1C [FMN]
NADH oxidation, absorbance at 340 nm (CtcQ [2]): CtcQ, which was highly active with either FAD or FMN as a substrate

Molecule: NC(=O)c1ccc[n+]([C@@H]2O[C@H](COP(=O)(O)OP(=O)(O)OC[C@H]3O[C@@H](n4cnc5c(N)ncnc54)[C@H](O)[C@@H]3O)[C@@H](O)[C@H]2O)c1 [NAD]
X-ray crystal structure (co-crystal) (CtcQ [1]; U-shaped, stacked on FAD, text also calls the bound molecule NADH): determined the crystal structure of CtcQ in complex with FAD and NAD

stoichiometry N [3]: 2
Molecule: CtcP (1-516), C-terminal truncation mutant lacking the helical hairpin (residues 1-516, P516G) (domain or fragment)

stoichiometry N [4]: 2
stoichiometry N [5]: 2
stoichiometry N [6]: 2
Molecule: halogenase CtcP from Kitasatospora aureofaciens, full-length (enzyme)

B1: FAD reductase CtcQ from Kitasatospora aureofaciens (N-terminal tag removed) (enzyme, UniProt S4S3E3 1-191, looked up)
chain: MPPEPLSLPLDLAPGLVDGDTFLSIMGALPTGVTVVTTLGPDGEPYGLTCSAACSVSKAPPLLLVCINRDSRVLKALLERGEFAVNVLRGGGESTSARFAAPVDDRFRDVRWEPGSAGGVPVMSADVVAHAECRVAAALDAGDHTIVIGAVVAGGPRPEVPSPLMYWRRSYARWPVEEDPRTAALTLAAEG
notes: a second construct with a C-terminal His6 tag (pET22b) was used only for the reductase activity assay; also called flavin reductase CtcQ; source: E. coli BL21(DE3), purified (Ni2+-chelating chromatography, tag cleavage, S-200 size exclusion); not shown: His10, N-terminal, cleaved
stoichiometry N [7]: 2

Source: paper PMC12400496 (Bioscience Reports, 2025)
